Values belong to the binder of their own block, whether it stands above or below them.
Legend:
[1] = biological target: T1, Human IL-33 (Axxora/Adipogen AG-40B-0038) (human, UniProt O95760 112-270, limits assumed); test: cell-based or functional assay
T1 sequence (looked up): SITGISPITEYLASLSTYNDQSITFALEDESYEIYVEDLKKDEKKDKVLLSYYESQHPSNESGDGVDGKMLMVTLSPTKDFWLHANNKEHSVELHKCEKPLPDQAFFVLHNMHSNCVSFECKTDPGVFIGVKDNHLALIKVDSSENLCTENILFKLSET

[2] = biological target: T2, Human IL-33 (Axxora/Alexis ALX-522-098) (human, UniProt O95760 112-270); test: cell-based or functional assay
T2 sequence (looked up): T1 sequence (looked up)

[3] = biological target: T1, Human IL-33 (Axxora/Adipogen …); test: cell-based or functional assay; remark: listed apart in the source
[4] = biological target: T1, Human IL-33 (Axxora/Adipogen …); test: cell-based or functional assay; remark: listed apart in the source
[5] = biological target: T3, Cynomolgus IL-33 Flag®His (cynomolgus monkey); test: ELISA, biotinylated antigen on streptavidin plate, anti-human IgG HRP
T3 construct: C-terminal FLAG 10xHis tag, E. coli; also called Mature Cynomolugus IL-33; cyno IL-33 FH
T3 chain: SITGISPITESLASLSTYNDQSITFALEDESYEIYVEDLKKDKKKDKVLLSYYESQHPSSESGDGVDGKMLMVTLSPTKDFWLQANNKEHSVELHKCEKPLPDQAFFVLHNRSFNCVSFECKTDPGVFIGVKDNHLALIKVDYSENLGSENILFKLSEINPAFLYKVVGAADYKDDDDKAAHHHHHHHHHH
Protocol: (§1) 96-well Greiner polypropylene plates (Greiner, 650201) were used for dilution preparation. Generally, each dilution was prepared in duplicate. IgG dilutions were allowed to block in PBS-M for 1 hour at room temperature before being used directly in ELISA experiments.
(§2) Streptavidin plates (Thermo Scientific, AB-1226) were coated with biotinylated antigen at 0.5 μg/ml in PBS and incubated overnight at 4° C. Plates were washed 3× with PBS and blocked with 300 μl/well blocking buffer (PBS-M) for 1 hour. Plates were washed 1× with PBS and blocked samples added, 50 μl/well for 1 hour at room temperature. […] Plates were washed 3× with PBS-T and developed with TMB, 50 μl/well (Sigma, T0440). The reaction was quenched with 50 μl/well 0.1M H2504 before reading on an EnVision™ plate reader, or similar equipment, at 450 nm.
(§3) Species cross-reactivity of anti-IL-33 antibodies was determined using a plate-based ELISA. Streptavidin plates (Thermo Scientific, AB-1226) were coated with biotinylated antigen at 0.5 μg/ml in PBS. Binding of purified IgG preparations was detected with anti-human IgG HRP (Sigma, A0170).

Mouse IL-33 Flag®His [6] = biological target: T4, Mouse IL-33 Flag®His (mouse); test: as above
T4 construct: C-terminal FLAG 10xHis tag, E. coli; also called Mature Mouse IL-33_FH; mouse IL-33 FH
T4 chain: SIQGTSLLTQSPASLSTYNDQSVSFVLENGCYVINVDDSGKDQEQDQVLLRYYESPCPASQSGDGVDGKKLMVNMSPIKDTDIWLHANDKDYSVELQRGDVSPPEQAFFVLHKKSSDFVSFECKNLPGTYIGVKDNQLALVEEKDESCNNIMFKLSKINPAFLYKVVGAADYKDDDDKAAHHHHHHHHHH
Protocol: as §1, §2, §3

Human IL-33 Flag®His [7] = biological target: T5, Human IL-33 Flag®His (human); test: as above
T5 construct: Mature IL-33 with C-terminal FLAG 10xHis tag, from E. coli; biotinylated via free cysteines where used biotinylated; also called Mature Human IL-33_FH; human IL-33 FH
T5 chain: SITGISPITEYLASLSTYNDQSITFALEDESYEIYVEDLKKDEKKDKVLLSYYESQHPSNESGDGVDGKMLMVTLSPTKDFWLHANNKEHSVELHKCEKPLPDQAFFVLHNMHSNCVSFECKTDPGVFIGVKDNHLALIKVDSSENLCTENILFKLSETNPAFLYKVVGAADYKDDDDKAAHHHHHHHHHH
Protocol: as §1, §2, §3

Human IL-33 Flag®His [8] = biological target: T5, Human IL-33 Flag®His; test: BIAcore 2000 solution affinity, 48 h equilibration at 25 C, free IgG read on biotinylated IL-33 chip
Protocol: The binding affinity of purified IgG samples of exemplary binding members to human, cynomolgus or mouse IL-33 was determined by solution affinity using a BIAcore 2000 (GE healthcare). A biotinylated-IL33 surface was immobilised on a streptavin coated sensor chip (GE healthcare cat. No. BR-1000-32). Anti-IL33 antibodies were incubated with various concentrations of unlabelled IL33 and equilibrated at 25° C. for 48 hours. The amount of free antibody was determined by flowing the samples over the IL33 chip and measuring the response compared to a standard curve of antibody. Affinities were determined using the solution affinity fit in BIAevaluation software. The affinities for antibodies IL330101, H338L293, IL330388, IL330396 binding to human, cynomolgus or mouse IL-33 are shown in Table 15.

[9] = biological target: T6, Human ST2-Fc (R&D Systems, or source not stated in the example) (human, UniProt Q01638 19-328); test: SPR BIAcore 2000, ST2 captured via Fc-tag on anti-human Fc, IL-33 7.8 nM to 0.24 nM as analyte, 1:1 Langmuir
T6 construct: extracellular domain; also called sST2.Fc; sST2
T6 sequence (looked up): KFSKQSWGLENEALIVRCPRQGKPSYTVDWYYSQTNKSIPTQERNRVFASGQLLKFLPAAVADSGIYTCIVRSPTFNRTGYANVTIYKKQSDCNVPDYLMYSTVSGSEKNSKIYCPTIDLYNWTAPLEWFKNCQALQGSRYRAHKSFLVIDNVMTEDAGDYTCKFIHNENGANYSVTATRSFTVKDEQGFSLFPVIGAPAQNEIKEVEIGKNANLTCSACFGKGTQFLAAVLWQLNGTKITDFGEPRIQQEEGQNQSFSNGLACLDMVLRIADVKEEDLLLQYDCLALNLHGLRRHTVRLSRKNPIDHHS
Protocol: The disulphide bonded IL-33 is likely a very different structure to the reduced, ST2-binding IL-33 form (FIG. 22, 23), and conversion to the disulphide bonded form was associated with loss of functional activity (FIG. 17C). To investigate this, the disulphide bonded form of IL-33 was tested for ability to bind ST2 by BIAcore analysis. Direct binding of IL-33 to the extracellular domain of ST2 was determined by Surface Plasmon Resonance using a BIAcore 2000 (GE healthcare). ST2 was immobilised via the Fc-tag using an anti-human Fc capture (GE healthcare BR-1003-39) on a CM5 sensor chip (GE healthcare BR-1003-99) to give a stable surface of approximately 150 RU. IL-33 was flowed over the surface at 30 ul/min for three minutes to determine association rates. Dissociation was measured by flowing buffer at 30 ul/min for 15 minutes. Sensorgrams were interpreted using BIAevaluation software and kinetics were determined using double reference subtracted sensorgrams using a 1:1 (Langmuir) binding model.

[10] = biological target: T7, H338L293 (SEQ ID NOs 182 and 187); test: Biacore T100, IgG captured on Protein G', 0.625-20 nM peptide as analyte, 1:1 fit
T7 construct: IgG; also called H338L293_fgl; H338L293 IgG
T7 sequence (VL, as listed by the source): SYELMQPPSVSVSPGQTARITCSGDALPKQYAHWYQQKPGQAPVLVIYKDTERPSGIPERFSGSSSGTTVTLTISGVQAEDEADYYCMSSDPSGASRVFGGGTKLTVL
Excerpt: The identified peptide together with a truncate ([…]) and scrambled variants of both, were then chemically synthesised and used in confirmatory T100 Biacore (GE Healthcare) binding studies. Protein G′ (Sigma Aldrich, P4689) was covalently coupled to the surface of a CM5 sensor chip (GE Healthcare) using standard amine coupling reagents according to manufacturer's instructions. The protein G′ surface was used to capture H338L293 or ST2-Fc via the Fc domain to provide a surface density of approximately 290 RU per cycle. IL33 peptides prepared in HBS-EP+ buffer, at a range of concentrations were passed over the sensor chip surface. The surface was regenerated using two 10 mM Glycine washes of pH 1.7 and pH 1.5 between each injection of antibody. The resulting sensorgrams were evaluated using Biacore T100 evaluation software 2.0.3 (GE Healthcare) and fitted to a 1:1 Langmuir binding model, to provide relative binding data.

Mouse IL-33 Flag®His [11] = biological target: T4, Mouse IL-33 Flag®His; test: ELISA, biotinylated antigen on streptavidin plate, purified IgG
Protocol: as §2, §3

IC50, Huvec IL-6 production [1]: 193 nM
IC50, Mast cell IL-6 production [1]: 93 nM
IC50, TF-1 proliferation [2]: 149 nM
IC50 (geomean), Huvec IL-6 production [3]: 497 nM
IC50 (geomean), Mast cell IL-6 production [3]: 49 nM
Huvec IL-6 production, maximum inhibition [4]: ~70%
Mast cell IL-6 production, inhibition [4]: 100%
EC50 [5]: 1.2 nM
EC50 (Mouse IL-33 Flag®His [6]): 0.85 nM
EC50 (Human IL-33 Flag®His [7]): 1.19 nM
Kd (Human IL-33 Flag®His [8]): 0.0032 pM
B1: IL330101 IgG (antibody, V domains shown)
VH: EVQLLESGGGLVQPGGSLRLSCAASGFTFSSYAMSWVRQAPGKGLEWVSAISGSGGSTYYADSVKGRFTISRDNSKNTLYLQMNSLRAEDTAVYYCVRVVAGYFDSWGRGTLVTVSS
VL: SYVLTQPPSVSVSPGQTARITCSGDALPKQYAHWYQQKPGQAPALVIYKDTERPSGIPERFSGSSSGTTVTLTISGVQAEDEADYYCQSADSSGASRVFGGGTKVTVL
notes: IgG1 or IgG1-TM; also called mAb IL330101; IL3300101

Kd [9]: 0.2 nM
B2: redIL-33 (detagged human IL33-01, BK349) (ligand, UniProt O95760 112-270, looked up)
chain: T1 sequence (looked up)
notes: Reduced form; also called reduced IL-33; Human IL33-01 detagged

Kd [10]: 2.36 nM
B3: Truncated IL-33 epitope peptide (peptide)
peptide: LSPTKDFWLHANNKEHSVELHK
notes: Chemically synthesised; also called truncate peptide

IC50 (geomean), TF-1 proliferation [2]: 81 nM
IC50 (geomean), Huvec IL-6 production [3]: 87 nM
IC50 (geomean), Mast cell IL-6 production [3]: 12 nM
binding result (Mouse IL-33 Flag®His [11]): no binding
EC50 [5]: 0.66 nM
EC50 (Human IL-33 Flag®His [7]): 0.65 nM
B4: IL330065 IgG (antibody, V domains shown)
VH: EVQLVQSGAEVKKPGTAVKISCKASGYTFTDYYIHWVQQAPGKGLEWMGLVDPEDGETKYAEKFQGRVSITADTSTDTAYMELRSLTSEDTAVYFCTMGWAQWGRGTLVTVSS
VL: QSVLTQPPSASGTPGQRVTISCSGSSSNIGSNYVYWYQQVPGTAPKLVIYRDFQRPSGVPDRFSGSKSGNSASLVISGLRSEDEGEYVCAAWDDSLTGPRFGGGTKVTVL
notes: IgG1 or IgG1-TM (L234F, L235E, P331S); functional data combine both formats
